Reference: paper PMC4008574 (PLoS ONE, 2014)
Ends that are not written are not given here.

T1: chemokine domain of fractalkine (FKN-CD), wild type (UniProt P78423 25-100)
T1 construct: fractalkine (CX3CL1), N-terminal chemokine domain, printed as residues 1-76; The limits 1-76 are printed for the chemokine domain in general (introduction); also called WT FKN-CD; CX3CL1
T1 sequence (looked up): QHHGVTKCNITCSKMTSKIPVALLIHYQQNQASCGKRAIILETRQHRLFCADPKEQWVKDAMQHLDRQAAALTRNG


Columns and labels:
[1] = molecular target: Integrin αvβ3 (Homo sapiens) (UniProt P06756); details: cited from earlier work
Integrin αvβ3 (Homo sapiens), sequence (P06756 31-992, chain 1 of 2): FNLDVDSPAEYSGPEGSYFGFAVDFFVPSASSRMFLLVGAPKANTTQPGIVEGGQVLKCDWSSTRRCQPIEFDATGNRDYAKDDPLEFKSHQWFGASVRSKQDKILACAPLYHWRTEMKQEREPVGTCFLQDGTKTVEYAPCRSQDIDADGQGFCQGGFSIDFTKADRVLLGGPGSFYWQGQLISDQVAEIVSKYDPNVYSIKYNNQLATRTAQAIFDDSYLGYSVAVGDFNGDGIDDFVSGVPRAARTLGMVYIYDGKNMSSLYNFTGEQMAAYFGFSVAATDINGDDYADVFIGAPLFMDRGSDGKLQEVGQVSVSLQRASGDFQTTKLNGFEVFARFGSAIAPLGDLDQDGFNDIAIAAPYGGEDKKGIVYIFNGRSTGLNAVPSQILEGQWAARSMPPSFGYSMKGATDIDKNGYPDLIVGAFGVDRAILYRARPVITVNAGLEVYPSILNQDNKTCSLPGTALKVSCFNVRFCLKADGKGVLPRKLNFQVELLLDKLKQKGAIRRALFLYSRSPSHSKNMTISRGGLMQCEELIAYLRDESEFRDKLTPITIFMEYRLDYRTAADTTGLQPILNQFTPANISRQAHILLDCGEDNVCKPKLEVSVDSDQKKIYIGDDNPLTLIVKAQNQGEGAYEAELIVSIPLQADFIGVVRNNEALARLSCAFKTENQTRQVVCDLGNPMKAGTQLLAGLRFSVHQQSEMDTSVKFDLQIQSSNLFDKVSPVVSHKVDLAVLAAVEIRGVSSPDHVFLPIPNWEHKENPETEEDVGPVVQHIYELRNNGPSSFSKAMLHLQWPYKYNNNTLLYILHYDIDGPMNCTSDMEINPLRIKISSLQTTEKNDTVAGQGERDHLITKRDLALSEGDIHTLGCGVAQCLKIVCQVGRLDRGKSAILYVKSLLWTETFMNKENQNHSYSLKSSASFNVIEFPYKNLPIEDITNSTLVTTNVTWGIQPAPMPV
Integrin αvβ3 (Homo sapiens), sequence (P05106 27-718, chain 2 of 2, further chain): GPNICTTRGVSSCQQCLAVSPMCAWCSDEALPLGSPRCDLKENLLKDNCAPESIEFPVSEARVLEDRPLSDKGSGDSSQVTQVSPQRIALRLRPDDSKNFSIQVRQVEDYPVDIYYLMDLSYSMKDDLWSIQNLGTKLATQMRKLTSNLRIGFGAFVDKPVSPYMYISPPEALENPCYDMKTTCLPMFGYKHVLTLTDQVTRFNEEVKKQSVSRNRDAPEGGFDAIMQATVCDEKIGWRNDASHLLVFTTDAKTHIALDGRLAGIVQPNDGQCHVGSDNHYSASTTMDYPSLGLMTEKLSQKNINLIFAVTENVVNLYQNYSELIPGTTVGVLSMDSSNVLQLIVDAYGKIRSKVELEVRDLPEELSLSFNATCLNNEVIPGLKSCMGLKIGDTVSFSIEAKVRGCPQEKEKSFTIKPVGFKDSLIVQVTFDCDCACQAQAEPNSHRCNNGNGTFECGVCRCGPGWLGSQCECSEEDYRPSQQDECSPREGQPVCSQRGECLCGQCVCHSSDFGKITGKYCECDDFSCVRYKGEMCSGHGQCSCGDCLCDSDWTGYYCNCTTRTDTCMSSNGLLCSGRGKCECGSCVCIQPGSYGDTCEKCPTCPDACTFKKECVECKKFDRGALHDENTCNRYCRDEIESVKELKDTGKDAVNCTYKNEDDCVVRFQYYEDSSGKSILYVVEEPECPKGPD

[2] = molecular target: T1, chemokine domain of fractalkine …; assay: ELISA; FKN-CD, γC399tr, FN-H120 or FN8-11 coated on wells (5 µM in Figure 4d; GST removed from FN-H120 and FN8-11); GST-tagged S2 peptides added in PBS, 2 h at room temperature; detected with HRP-conjugated anti-GST antibody; details: both partners purified

Fractalkine chemokine domain, sequence (P78423 22-103): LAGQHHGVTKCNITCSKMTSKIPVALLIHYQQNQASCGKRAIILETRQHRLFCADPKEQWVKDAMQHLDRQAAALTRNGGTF

Molecule | Kd [1] | binding result [2]
Fractalkine chemokine domain (from UniProt P78423) | 300 pM | –
QPNDGQSHVGSDNHYSASTTM (also: GST fusion protein, The 6His tag was put into the BamHI site of pGEX-2T and the peptide's oligonucleotides into the BamHI/EcoRI site of the resulting vector; also called S2 peptide) [GST fusion protein of site 2 peptide of integrin β3 (S2-β3 peptide)] | – | binds
